According to patent US20060121510:

System: calmodulin (3′,5′-cyclic nucleotide phosphodiesterase activator, Sigma)

3′,5′-cyclic nucleotide phosphodiesterase (activator deficient from bovine brain, Sigma)
hydrolysis of 3′,5′-cyclic AMP to 5′-AMP during a 40 min preincubation (enzyme activity): more than 90% is destroyed in a similar reaction containing calmodulin
